The values below come from article PMC3765158, “Structure Determination and Biochemical Characterization of a Putative HNH Endonuclease from Geobacter metallireducens GS-15” (PLoS ONE, 2013).

The target of series [1] is non-His-tagged Gme HNHE (Gmet_0936 cleaved off the intein-CBD fusion, with non-native C-terminal residues LEGSS) (Geobacter metallireducens GS-15). The series can be described thus: SEC; Superdex 200 5/150 GL; 10 µl of 4 or 8 mg/ml protein injected; Kav against the standards ribonuclease A, ovalbumin and conalbumin.
Series [2] deals with the molecule itself. Briefly: SEC-MALS; analytical gel filtration on Shodex 802.5 at 4°C in 100 mM NaCl, 0.025% NaN3, 100 mM Tris-HCl pH 7.5, static light scattering and refractive index detectors; Debye analysis; data not shown. (In gel filtration, larger molecules generally elute earlier.)

By stoichiometry N is commonly meant the number of molecules, sites or subunits per partner or assembly. Take “non-His-tagged Gme HNHE (Gmet_0936 cleaved off the intein-CBD fusion, with non-native C-terminal residues LEGSS) (enzyme)”: the stoichiometry N in series [1] is 2.

B1: Gmet_0936 protein (putative HNH endonuclease) from Geobacter metallireducens GS-15, with C-terminal LEH6 (enzyme, UniProt Q39X46 1-104, looked up)
chain: MNYFIVEVSEQEVKREKEKARELRRSQWWKNRIARGICHYCGEIFPPEELTMDHLVPVVRGGKSTRGNVVPACKECNNRKKYLLPVEWEEYLDSLESEPSDGEG
modifications: selenomethionine in place of methionine (selenomethionine-labeled)
notes: Gmet_0936, putative HNH endonuclease of Geobacter metallireducens GS-15; full-length gene in a pET21 derivative (pGmR87-21.1); molecular mass with tag 13.3 kDa; The SEC with static light scattering used a thawed aliquot of the crystallization stock (the same protein as in the crystal); also called Gme HNHE (H6); Gmet_0936 (H6); source: E. coli BL21 (DE3) pMGK, selenomethionine-labeled, purified …
In the case of B1, the “stoichiometry N” value in series [2] stood at 2.
